From patent publication US20050019842A1

Experiments:
[1] = molecular target: mouse IgG (Sigma Chemical Co., product number I5381); assay: resonant light scattering; step C, 40 µg/mL Fab specific goat anti-mouse IgG on mouse IgG held by Protein G′ microparticles; shift is cumulative against the unbound reference (0.054 nm after step B)
[2] = molecular target: avidin (from egg white, Sigma Chemical Co., product number A9275) (UniProt P02701); assay: resonant light scattering; step C, 50 µg/mL antibody on avidin held on biotinylated microparticles; shift is cumulative against the unbound reference (avidin step alone 0.031 nm); N=18
UniProt P02701, sequence (P02701 25-152 limits assumed): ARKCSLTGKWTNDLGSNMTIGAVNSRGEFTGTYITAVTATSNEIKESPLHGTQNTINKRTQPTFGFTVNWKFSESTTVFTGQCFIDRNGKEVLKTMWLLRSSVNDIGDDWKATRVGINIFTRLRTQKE

[3] = molecular target: Protein G′ (Sigma Chemical Co. product P-4689) (group G Streptococcal strain) (UniProt P19909); assay: resonant light scattering, real time; 50 µg/mL mouse IgG on Protein G′ microparticles; time 20 min
[4] = molecular target: Protein G′ (Sigma Chemical Co. product P-4689) (group G Streptococcal strain) (UniProt P19909); assay: resonant light scattering, real time; 500 µg/mL mouse IgG on Protein G′ microparticles; time 30 min
[5] = molecular target: Protein G′ (Sigma Chemical Co. product P-4689) (group G Streptococcal strain) (UniProt P19909); assay: resonant light scattering, real time; 50 µg/mL mouse IgG on Protein G′ microparticles; time 0 min (reference)
[6] = molecular target: Protein G′ (Sigma Chemical Co. product P-4689) (group G Streptococcal strain) (UniProt P19909); assay: resonant light scattering, real time; 10 µg/mL mouse IgG on Protein G′ microparticles; time 16 min
[7] = molecular target: Protein G′ (Sigma Chemical Co. product P-4689) (group G Streptococcal strain) (UniProt P19909); assay: resonant light scattering, real time; 500 µg/mL mouse IgG on Protein G′ microparticles; time 35 min
[8] = molecular target: Protein G′ (Sigma Chemical Co. product P-4689) (group G Streptococcal strain) (UniProt P19909); assay: resonant light scattering, real time; 10 µg/mL mouse IgG on Protein G′ microparticles; time 30 min
[9] = molecular target: Protein G′ (Sigma Chemical Co. product P-4689) (group G Streptococcal strain) (UniProt P19909); assay: resonant light scattering, real time; 500 µg/mL mouse IgG on Protein G′ microparticles; time 11 min
[10] = molecular target: Protein G′ (Sigma Chemical Co. product P-4689) (group G Streptococcal strain) (UniProt P19909); assay: resonant light scattering, real time; 50 µg/mL mouse IgG on Protein G′ microparticles; time 30 min
[11] = molecular target: Protein G′ (Sigma Chemical Co. product P-4689) (group G Streptococcal strain) (UniProt P19909); assay: resonant light scattering, real time; 50 µg/mL mouse IgG on Protein G′ microparticles; time 5 min
[12] = molecular target: Protein G′ (Sigma Chemical Co. product P-4689) (group G Streptococcal strain) (UniProt P19909); assay: resonant light scattering, real time; 500 µg/mL mouse IgG on Protein G′ microparticles; time 16 min
[13] = molecular target: Protein G′ (Sigma Chemical Co. product P-4689) (group G Streptococcal strain) (UniProt P19909); assay: resonant light scattering, real time; 10 µg/mL mouse IgG on Protein G′ microparticles; time 40 min
[14] = molecular target: Protein G′ (Sigma Chemical Co. product P-4689) (group G Streptococcal strain) (UniProt P19909); assay: resonant light scattering, real time; 10 µg/mL mouse IgG on Protein G′ microparticles; time 35 min
[15] = molecular target: Protein G′ (Sigma Chemical Co. product P-4689) (group G Streptococcal strain) (UniProt P19909); assay: resonant light scattering, real time; 50 µg/mL mouse IgG on Protein G′ microparticles; time 11 min
[16] = molecular target: Protein G′ (Sigma Chemical Co. product P-4689) (group G Streptococcal strain) (UniProt P19909); assay: resonant light scattering, real time; 10 µg/mL mouse IgG on Protein G′ microparticles; time 5 min
[17] = molecular target: Protein G′ (Sigma Chemical Co. product P-4689) (group G Streptococcal strain) (UniProt P19909); assay: resonant light scattering; step B, 50 µg/mL mouse IgG on Protein G′ microparticles, 0.5 h; against the unbound reference
[18] = molecular target: Protein G′ (Sigma Chemical Co. product P-4689) (group G Streptococcal strain) (UniProt P19909); assay: resonant light scattering, real time; 500 µg/mL mouse IgG on Protein G′ microparticles; time 25 min
[19] = molecular target: Protein G′ (Sigma Chemical Co. product P-4689) (group G Streptococcal strain) (UniProt P19909); assay: resonant light scattering, real time; 10 µg/mL mouse IgG on Protein G′ microparticles; time 60 min
[20] = molecular target: Protein G′ (Sigma Chemical Co. product P-4689) (group G Streptococcal strain) (UniProt P19909); assay: resonant light scattering, real time; 10 µg/mL mouse IgG on Protein G′ microparticles; time 20 min
[21] = molecular target: Protein G′ (Sigma Chemical Co. product P-4689) (group G Streptococcal strain) (UniProt P19909); assay: resonant light scattering, real time; 500 µg/mL mouse IgG on Protein G′ microparticles; time 5 min
[22] = molecular target: Protein G′ (Sigma Chemical Co. product P-4689) (group G Streptococcal strain) (UniProt P19909); assay: resonant light scattering, real time; 500 µg/mL mouse IgG on Protein G′ microparticles; time 20 min
[23] = molecular target: Protein G′ (Sigma Chemical Co. product P-4689) (group G Streptococcal strain) (UniProt P19909); assay: resonant light scattering, real time; 10 µg/mL mouse IgG on Protein G′ microparticles; time 25 min
[24] = molecular target: Protein G′ (Sigma Chemical Co. product P-4689) (group G Streptococcal strain) (UniProt P19909); assay: resonant light scattering, real time; 50 µg/mL mouse IgG on Protein G′ microparticles; time 35 min
[25] = molecular target: Protein G′ (Sigma Chemical Co. product P-4689) (group G Streptococcal strain) (UniProt P19909); assay: resonant light scattering, real time; 10 µg/mL mouse IgG on Protein G′ microparticles; time 0 min (reference)
[26] = molecular target: Protein G′ (Sigma Chemical Co. product P-4689) (group G Streptococcal strain) (UniProt P19909); assay: resonant light scattering, real time; 10 µg/mL mouse IgG on Protein G′ microparticles
[27] = molecular target: Protein G′ (Sigma Chemical Co. product P-4689) (group G Streptococcal strain) (UniProt P19909); assay: resonant light scattering, real time; 10 µg/mL mouse IgG on Protein G′ microparticles; time 11 min
[28] = molecular target: Protein G′ (Sigma Chemical Co. product P-4689) (group G Streptococcal strain) (UniProt P19909); assay: resonant light scattering, real time; 10 µg/mL mouse IgG on Protein G′ microparticles; time 50 min
[29] = molecular target: Protein G′ (Sigma Chemical Co. product P-4689) (group G Streptococcal strain) (UniProt P19909); assay: resonant light scattering, real time; 500 µg/mL mouse IgG on Protein G′ microparticles; time 0 min (reference)
[30] = molecular target: mouse IgG (Sigma Chemical Co., product number I5381); assay: resonant light scattering; step 1, 2.2 mg/mL E. coli cellular extract proteins on mouse IgG microparticles; against the starting spectra
[31] = molecular target: mouse IgG (Sigma Chemical Co., product number I5381); assay: resonant light scattering; step 2, 50 µg/mL anti-Alexa rabbit IgG in cell extract background on mouse IgG microparticles; against the starting spectra
[32] = molecular target: mouse IgG (Sigma Chemical Co., product number I5381); assay: resonant light scattering; step 3, 50 µg/mL rabbit anti-mouse IgG in step 2 background on mouse IgG microparticles; against the starting spectra

Fab specific goat anti-mouse IgG (Sigma Chemical Co. product M 6898) (antibody)
resonance wavelength shift [1]: 0.111 nm

biotinylated anti-bovine immunoglobulin G (IgG) [H+L] [Goat] (Rockland Inc., product number 601-1602) (antibody)
resonance wavelength shift [2]: 0.069 nm

mouse IgG (Sigma Chemical Co., product number I5381) (antibody)
wavelength shift [3]: 0.051 nm | wavelength shift [4]: 0.054 nm | wavelength shift [5]: 0 nm | wavelength shift [6]: 0.026 nm | wavelength shift [7]: 0.054 nm | wavelength shift [8]: 0.036 nm | wavelength shift [9]: 0.049 nm | wavelength shift [10]: 0.058 nm | wavelength shift [11]: 0.032 nm | wavelength shift [12]: 0.05 nm | wavelength shift [13]: 0.041 nm | wavelength shift [14]: 0.036 nm | wavelength shift [15]: 0.037 nm | wavelength shift [16]: 0.01 nm | resonance wavelength shift [17]: 0.054 nm | wavelength shift [18]: 0.052 nm | wavelength shift [19]: 0.043 nm | wavelength shift [20]: 0.03 nm | wavelength shift [21]: 0.037 nm | wavelength shift [22]: 0.053 nm | wavelength shift [23]: 0.041 nm | wavelength shift [24]: 0.06 nm | wavelength shift [25]: 0 nm | percent of the saturation binding level [26]: 70% | wavelength shift [27]: 0.022 nm | wavelength shift [28]: 0.043 nm | wavelength shift [29]: 0 nm

E. coli cellular extract proteins
resonance wavelength shift [30]: -0.005 nm

anti-Alexa Fluor 488 rabbit IgG (Molecular Probes, Inc. product number A-11094) (antibody)
resonance wavelength shift [31]: -0.004 nm

rabbit anti-mouse IgG (H+L) (unconjugated, Pierce, product 31188) (antibody)
resonance wavelength shift [32]: 0.056 nm
